Reference: patent US20230340114A1 (IMMUNE ONC THERAPEUTICS, published 2023)

What was measured:
[1] = biological target: T1, recombinant human LILRB4 protein (Sino Biological, cat #16742-H08H) (human, UniProt Q8NHJ6 22-259); experiment: SPR (Biacore 8K), LILRB4 immobilized on CM5 chip, bispecific as analyte, 1:1 model
T1 construct: extracellular domain; also called LILRB4 recombinant protein (Sino Biological); Human LILRB4 ECD-his; not shown: his tag
Experimental: (§1) Binding affinities of first-generation bispecific antibodies to recombinant CD3e-CD3d heterodimer protein (Acro Biosystems) or LILRB4 recombinant protein (Sino Biological) were measured by surface plasmon resonance using a Biacore 8K instrument. Briefly, CD3e-CD3d or LILRB4 protein was immobilized on a CM5 chip with EDC and NHS according to standard protocols. […] The chip was regenerated using 10 mM glycine pH 1.5 as the regeneration buffer. The sensorgrams for reference channel Fc1 and buffer channel were subtracted from the test sensorgrams and the experimental data was fitted by 1:1 binding model.

[2] = biological target: recombinant CD3e-CD3d heterodimer protein (Acro Biosystems) (UniProt P07766 23-126; P04234 22-105); experiment: SPR (Biacore 8K), CD3e-CD3d immobilized on CM5 chip, bispecific as analyte, 1:1 model
Experimental: as §1

[3] = biological target: T2, human LILRB4 expressed on cells (human, UniProt Q8NHJ6 22-448); experiment: cell-based or functional assay
[4] = biological target: T3, flag-tagged cynomolgus monkey LILRB4 expressed on CHO-K1 cells (cynomolgus monkey); experiment: FACS, CHO-stable cells expressing cyno LILRB4
T3 construct: whole, on cells; also called cyno LILRB4

[5] = biological target: T2, human LILRB4 expressed on cells; experiment: FACS, CHO-stable cells expressing human LILRB4

Sequence of recombinant CD3e-CD3d heterodimer protein (Acro Biosystems) (P07766 23-126 limits assumed, chain 1 of 2): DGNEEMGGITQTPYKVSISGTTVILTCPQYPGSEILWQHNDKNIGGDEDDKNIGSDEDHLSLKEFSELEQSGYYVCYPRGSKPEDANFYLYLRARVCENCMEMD
Sequence of recombinant CD3e-CD3d heterodimer protein (Acro Biosystems) (P04234 22-105 limits assumed, chain 2 of 2): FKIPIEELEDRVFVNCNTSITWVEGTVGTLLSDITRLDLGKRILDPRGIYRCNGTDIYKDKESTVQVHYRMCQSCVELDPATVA

Binder | Kd [1] | Kd [2] | Monocyte (max %), Donor 1 [3] | Monocyte (max %), Donor 2 [3] | Monocyte (max %), Donor 3 [3] | EC50 [4] | EC50 [5] | Monocyte killing EC50, Donor 1 [3] | Monocyte killing EC50, Donor 2 [3] | Monocyte killing EC50, Donor 3 [3] | T-cell cytotoxicity, THP-1 (max %) [3] | T-cell cytotoxicity, THP-1 EC50 (estimated) [3] | T-cell cytotoxicity, THP-1 EC50 [3]
4ab4ab-3 (bispecific antibody, human IgG1, kappa, L234A L235A, also called first-generation LILRB4/CD3 bispecific antibody No. 4) heavy 1: not shown heavy 2: EVQLVESGGGLVQPGGSLRLSCAASGFSLSSSYWISWVRQAPGKGLEWIGSIDSGSVGITYYATWVKGRFTISRDNSKNTLYLQMNSLRAEDTAVYYCARHGDNWALDLWGQGTLVTVLEDLKNVFPPEVAVFEPSEAEISHTQKATLVCLATGFYPDHVELSWWVNGKEVHSGVCTDPQPLKEQPALQDSRYALSSRLRVSATFWQNPRNHFRCQVQFYGLSENDEWTQDRAKPVTQIVSAEAWGRGGGGSGGGGSEVQLVESGGGLVQPGGSLRLSCAASGFSLSSSYWISWVRQAPGKGLEWIGSIDSGSVGITYYATWVKGRFTISRDNSKNTLYLQMNSLRAEDTAVYYCARHGDNWALDLWGQGTLVTVLEDLKNVFPPEVAVFEPSEAEISHTQKATLVCLATGFYPDHVELSWWVNGKEVHSGVCTDPQPLKEQPALQDSRYALSSRLRVSATFWQNPRNHFRCQVQFYGLSENDEWTQDRAKPVTQIVSAEAWGRASDKTHTCPPCPAPELLGGPSVFLFPPKPKDTLMISRTPEVTCVVVDVSHEDPEVKFNWYVDGVEVHNAKTKPREEQYNSTYRVVSVLTVLHQDWLNGKEYKCKVSNKALPAPIEKTISKAKGQPREPQVCTLPPSREEMTKNQVSLSCAVKGFYPSDIAVEWESNGQPENNYKTTPPVLDSDGSFFLVSKLTVDKSRWQQGNVFSCSVMHEALHNHYTQKSLSLSPG light 1: not shown light 2: DIQMTQSPSTLSASVGDRVTITCRASQSISSWLAWYQQKPGKAPKLLIYKASTLASGVPSRFSGSGSGTEFTLTISSLQPDDFATYYCQHGYIRGDLDNVFGGGTKVEIKPDIQNPDPAVYQLRDSKSSDKSVCLFTDFDSQTQVSQSKDSDVYITDKCVLDMRSMDFKSNSAVAWSQKSDFACANAFQNSIIPEDTFFPSPESS | 260 pM | 26800 pM | 55% | 59% | 54.5% | – | – | 1.3 pM | 0.32 pM | 2.9 pM | 98.3% | < 0.01 pM | –
4ab3-4ab (bispecific antibody, human IgG1, kappa, L234A L235A, also called first-generation LILRB4/CD3 bispecific antibody No. 6) heavy 1: not shown heavy 2: EVQLVESGGGLVQPGGSLRLSCAASGFSLSSSYWISWVRQAPGKGLEWIGSIDSGSVGITYYATWVKGRFTISRDNSKNTLYLQMNSLRAEDTAVYYCARHGDNWALDLWGQGTLVTVLEDLKNVFPPEVAVFEPSEAEISHTQKATLVCLATGFYPDHVELSWWVNGKEVHSGVCTDPQPLKEQPALQDSRYALSSRLRVSATFWQNPRNHFRCQVQFYGLSENDEWTQDRAKPVTQIVSAEAWGRASDKTHTCPPCPAPEAAGGPSVFLFPPKPKDTLMISRTPEVTCVVVDVSHEDPEVKFNWYVDGVEVHNAKTKPREEQYNSTYRVVSVLTVLHQDWLNGKEYKCKVSNKALPAPIEKTISKAKGQPREPQVCTLPPSREEMTKNQVSLSCAVKGFYPSDIAVEWESNGQPENNYKTTPPVLDSDGSFFLVSKLTVDKSRWQQGNVFSCSVMHEALHNHYTQKSLSLSPG light 1: not shown light 2: DIQMTQSPSTLSASVGDRVTITCRASQSISSWLAWYQQKPGKAPKLLIYKASTLASGVPSRFSGSGSGTEFTLTISSLQPDDFATYYCQHGYIRGDLDNVFGGGTKVEIKPDIQNPDPAVYQLRDSKSSDKSVCLFTDFDSQTQVSQSKDSDVYITDKCVLDMRSMDFKSNSAVAWSQKSDFACANAFQNSIIPEDTFFPSPESS | 260 pM | 57300 pM | 29% | 44% | 44% | – | – | 0.43 pM | 0.93 pM | 1.6 pM | 98.1% | < 0.01 pM | –
H7K3 variant 5, K3m1 (N/V) (antibody, V domains shown) VH: EVQLVESGGGLVQPGGSLRLSCAASGFSLSSSYWISWVRQAPGKGLEWIGSIDSGSVGITYYATWVKGRFTISRDNSKNTLYLQMNSLRAEDTAVYYCARHGDNWALDLWGQGTLVTVSS VL: DIQMTQSPSTLSASVGDRVTITCRASQSIVSWLAWYQQKPGKAPKLLIYKASTLASGVPSRFSGSGSGTEFTLTISSLQPDDFATYYCQHGYIRGDLDNVFGGGTKVEIK | – | – | – | – | – | 1230 pM | 463 pM | – | – | – | – | – | –
H7K3 variant 8, K3m4 (N/Q) (antibody, V domains shown) VH: EVQLVESGGGLVQPGGSLRLSCAASGFSLSSSYWISWVRQAPGKGLEWIGSIDSGSVGITYYATWVKGRFTISRDNSKNTLYLQMNSLRAEDTAVYYCARHGDNWALDLWGQGTLVTVSS VL: DIQMTQSPSTLSASVGDRVTITCRASQSIQSWLAWYQQKPGKAPKLLIYKASTLASGVPSRFSGSGSGTEFTLTISSLQPDDFATYYCQHGYIRGDLDNVFGGGTKVEIK | – | – | – | – | – | 989 pM | 480 pM | – | – | – | – | – | –
H7K3 variant 12, K3m8 (S/V) (antibody, V domains shown) VH: EVQLVESGGGLVQPGGSLRLSCAASGFSLSSSYWISWVRQAPGKGLEWIGSIDSGSVGITYYATWVKGRFTISRDNSKNTLYLQMNSLRAEDTAVYYCARHGDNWALDLWGQGTLVTVSS VL: DIQMTQSPSTLSASVGDRVTITCRASQSINVWLAWYQQKPGKAPKLLIYKASTLASGVPSRFSGSGSGTEFTLTISSLQPDDFATYYCQHGYIRGDLDNVFGGGTKVEIK | – | – | – | – | – | 933 pM | 402 pM | – | – | – | – | – | –

Second part, led by results:

Kd [1] | Kd [2] | Monocyte (max %), Donor 1 [3] | Monocyte (max %), Donor 2 [3] | Monocyte (max %), Donor 3 [3] | EC50 [4] | EC50 [5] | Binder | Monocyte killing EC50, Donor 1 [3] | Monocyte killing EC50, Donor 2 [3] | Monocyte killing EC50, Donor 3 [3] | T-cell cytotoxicity, THP-1 (max %) [3] | T-cell cytotoxicity, THP-1 EC50 (estimated) [3] | T-cell cytotoxicity, THP-1 EC50 [3]
– | – | – | – | – | 974 pM | 455 pM | H7K3 variant 11, K3m7 (S/Q) (antibody, V domains shown) VH: EVQLVESGGGLVQPGGSLRLSCAASGFSLSSSYWISWVRQAPGKGLEWIGSIDSGSVGITYYATWVKGRFTISRDNSKNTLYLQMNSLRAEDTAVYYCARHGDNWALDLWGQGTLVTVSS VL: DIQMTQSPSTLSASVGDRVTITCRASQSINQWLAWYQQKPGKAPKLLIYKASTLASGVPSRFSGSGSGTEFTLTISSLQPDDFATYYCQHGYIRGDLDNVFGGGTKVEIK | – | – | – | – | – | –
230 pM | 42100 pM | 39% | 30% | 0% | – | – | 44-3ab (bispecific antibody, human IgG1, kappa, L234A L235A, also called first-generation LILRB4/CD3 bispecific antibody No. 3) heavy 1: not shown heavy 2: EVQLVESGGGLVQPGGSLRLSCAASGFSLSSSYWISWVRQAPGKGLEWIGSIDSGSVGITYYATWVKGRFTISRDNSKNTLYLQMNSLRAEDTAVYYCARHGDNWALDLWGQGTLVTVSSASTKGPSVFPLAPSSKSTSGGTAALGCLVKDYFPEPVTVSWNSGALTSGVHTFPAVLQSSGLYSLSSVVTVPSSSLGTQTYICNVNHKPSNTKVDKRVEPKSCGGGGSGGGGSEVQLVESGGGLVQPGGSLRLSCAASGFSLSSSYWISWVRQAPGKGLEWIGSIDSGSVGITYYATWVKGRFTISRDNSKNTLYLQMNSLRAEDTAVYYCARHGDNWALDLWGQGTLVTVSSASTKGPSVFPLAPSSKSTSGGTAALGCLVKDYFPEPVTVSWNSGALTSGVHTFPAVLQSSGLYSLSSVVTVPSSSLGTQTYICNVNHKPSNTKVDKRVEPKSCDKTHTCPPCPAPEAAGGPSVFLFPPKPKDTLMISRTPEVTCVVVDVSHEDPEVKFNWYVDGVEVHNAKTKPREEQYNSTYRVVSVLTVLHQDWLNGKEYKCKVSNKALPAPIEKTISKAKGQPREPQVCTLPPSREEMTKNQVSLSCAVKGFYPSDIAVEWESNGQPENNYKTTPPVLDSDGSFFLVSKLTVDKSRWQQGNVFSCSVMHEALHNHYTQKSLSLSPG light 1: DIVMTQSPDSLAVSLGERATINCKSSQSLLNSRTRKNYLAWYQQKPGQPPKLLIYWASTRQSGVPDRFSGSGSGTDFTLTISSLQAEDVAVYYCTQSHTLRTFGGGTKVEIKPDIQNPDPAVYQLRDSKSSDKSVCLFTDFDSQTQVSQSKDSDVYITDKCVLDMRSMDFKSNSAVAWSQKSDFACANAFQNSIIPEDTFFPSPESS light 2: DIQMTQSPSTLSASVGDRVTITCRASQSISSWLAWYQQKPGKAPKLLIYKASTLASGVPSRFSGSGSGTEFTLTISSLQPDDFATYYCQHGYIRGDLDNVFGGGTKVEIKRTVAAPSVFIFPPSDEQLKSGTASVVCLLNNFYPREAKVQWKVDNALQSGNSQESVTEQDSKDSTYSLSSTLTLSKADYEKHKVYACEVTHQGLSSPVTKSFNRGEC | – | 3.4 pM | – | 96.4% | – | 0.43 pM
290 pM | 47000 pM | 45% | 0% | 42% | – | – | 43ab-4 (bispecific antibody, human IgG1, kappa, L234A L235A, also called first-generation LILRB4/CD3 bispecific antibody No. 5) heavy 1: not shown heavy 2: EVQLVESGGGLVQPGGSLRLSCAASGFSLSSSYWISWVRQAPGKGLEWIGSIDSGSVGITYYATWVKGRFTISRDNSKNTLYLQMNSLRAEDTAVYYCARHGDNWALDLWGQGTLVTVSSASTKGPSVFPLAPSSKSTSGGTAALGCLVKDYFPEPVTVSWNSGALTSGVHTFPAVLQSSGLYSLSSVVTVPSSSLGTQTYICNVNHKPSNTKVDKRVEPKSCDKTHTCPPCPAPEAAGGPSVFLFPPKPKDTLMISRTPEVTCVVVDVSHEDPEVKFNWYVDGVEVHNAKTKPREEQYNSTYRVVSVLTVLHQDWLNGKEYKCKVSNKALPAPIEKTISKAKGQPREPQVCTLPPSREEMTKNQVSLSCAVKGFYPSDIAVEWESNGQPENNYKTTPPVLDSDGSFFLVSKLTVDKSRWQQGNVFSCSVMHEALHNHYTQKSLSLSPG light 1: DIVMTQSPDSLAVSLGERATINCKSSQSLLNSRTRKNYLAWYQQKPGQPPKLLIYWASTRQSGVPDRFSGSGSGTDFTLTISSLQAEDVAVYYCTQSHTLRTFGGGTKVEIKPDIQNPDPAVYQLRDSKSSDKSVCLFTDFDSQTQVSQSKDSDVYITDKCVLDMRSMDFKSNSAVAWSQKSDFACANAFQNSIIPEDTFFPSPESS light 2: DIQMTQSPSTLSASVGDRVTITCRASQSISSWLAWYQQKPGKAPKLLIYKASTLASGVPSRFSGSGSGTEFTLTISSLQPDDFATYYCQHGYIRGDLDNVFGGGTKVEIKRTVAAPSVFIFPPSDEQLKSGTASVVCLLNNFYPREAKVQWKVDNALQSGNSQESVTEQDSKDSTYSLSSTLTLSKADYEKHKVYACEVTHQGLSSPVTKSFNRGEC | 0.19 pM | – | 0.084 pM | 98.7% | < 0.01 pM | –
